One test concerns the target T1, GIPR I378M (human) (UniProt P48546).
T1 sequence: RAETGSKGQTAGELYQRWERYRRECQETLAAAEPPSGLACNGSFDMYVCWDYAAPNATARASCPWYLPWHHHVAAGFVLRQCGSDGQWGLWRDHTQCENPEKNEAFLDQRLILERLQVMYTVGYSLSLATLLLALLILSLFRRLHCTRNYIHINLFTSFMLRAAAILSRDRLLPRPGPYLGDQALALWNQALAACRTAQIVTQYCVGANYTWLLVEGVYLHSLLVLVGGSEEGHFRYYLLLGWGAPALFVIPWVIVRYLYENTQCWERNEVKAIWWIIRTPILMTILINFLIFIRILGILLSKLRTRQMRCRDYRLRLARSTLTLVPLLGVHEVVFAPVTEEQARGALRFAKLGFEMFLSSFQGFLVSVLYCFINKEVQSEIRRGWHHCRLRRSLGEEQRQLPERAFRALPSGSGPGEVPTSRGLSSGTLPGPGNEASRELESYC

Another test deals with T2, GIPR W90Lfs* (human) (UniProt P48546).
T2 sequence (P48546 whole entry, looked up): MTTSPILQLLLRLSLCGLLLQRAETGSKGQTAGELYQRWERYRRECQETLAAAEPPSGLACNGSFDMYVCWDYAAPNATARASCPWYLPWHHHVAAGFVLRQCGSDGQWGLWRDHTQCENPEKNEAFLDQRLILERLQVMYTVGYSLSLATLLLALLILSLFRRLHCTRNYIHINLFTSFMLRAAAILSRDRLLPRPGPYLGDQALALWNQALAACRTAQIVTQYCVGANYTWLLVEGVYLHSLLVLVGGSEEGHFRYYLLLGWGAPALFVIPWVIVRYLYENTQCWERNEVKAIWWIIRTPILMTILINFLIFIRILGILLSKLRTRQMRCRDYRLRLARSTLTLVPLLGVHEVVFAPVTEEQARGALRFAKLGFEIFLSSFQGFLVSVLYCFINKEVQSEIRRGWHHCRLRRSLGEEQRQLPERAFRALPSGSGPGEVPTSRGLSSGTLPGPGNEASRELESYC

For another test, the target named is GIPR L13F (human) (UniProt P48546).
Another test concerns the target T3, GIPR M67R (human) (UniProt P48546).
T3 sequence: T1 sequence with M46R, M357I

The target of another test is T4, GIPR E418K (human) (UniProt P48546).
T4 sequence: T1 sequence with M357I, E397K

Another test deals with T5, GIPR K397N (human) (UniProt P48546).
T5 sequence: T1 sequence with M357I, K376N

A further test has as its target T6, GIPR A294V (human) (UniProt P48546).
T6 sequence: T1 sequence with A273V, M357I

Substitutions are numbered along the chain they refer to.

For “β-arrestin 2 (Rluc8-Arrestin-3-Sp1) (from UniProt P32121 1-409) (natural protein)”, the β-arrestin 2 recruitment (BRET) on stimulation with GIP(1-42): logEC50 (Arrestin) (log M (inferred)) with GIPR I378M (human) was -9.13; with GIPR W90Lfs* (human), -10.8; with GIPR L13F (human), -8.75; with GIPR M67R (human) it was -8.16; in the test with GIPR E418K (human), -9.19; with GIPR K397N (human), -8.9. In the test with GIPR A294V (human), this substance showed a β-arrestin 2 recruitment (BRET) on stimulation with GIP(1-42): logEC50 (Arrestin) (log M (inferred)) of -9.01.
